Data from publication PMC5826766.

System: CN(CC(=O)O)C(=O)CN
Assay: concentration-dependent cellular uptake, HPLC-MS/MS, mock-corrected, Km
Format: cell-based, Homo sapiens

hPHT1 (human peptide/histidine transporter 1, SLC15A4) (Homo sapiens; L14A/L15A/L318A/V319A)
Km: 1690 ± 300 µM
Vmax: 0.0001 µmol/min/mg
Vmax/Km: 0.0592 µL/min/mg
